In patent US20160311881A1 (Eli Lilly, published 2016):
Non-standard residues stand in square brackets, D forms with d. No end group written: not given here. Aib = CC(C)(N)C(=O)O

Legend:
[1] = target: T1, mouse glucagon receptor (mGR) (mouse, UniProt Q61606 27-485); experiment: SPA competition against 125I-labelled glucagon on mGR membranes; Cheng-Prusoff
T1 construct: whole, on cells; The assay used crude plasma membranes of the expressing 293HEK cells

[2] = target: T2, human glucose-dependent insulinotropic peptide receptor (GIP-R) (human, UniProt P48546 22-466); experiment: SPA competition against 125I-labelled GIP on human GIP-R membranes; Cheng-Prusoff
T2 construct: whole, on cells; The assay used crude plasma membranes of the expressing CHO-S cells; also called human GIP-R; hGIP-R
T2 sequence (looked up): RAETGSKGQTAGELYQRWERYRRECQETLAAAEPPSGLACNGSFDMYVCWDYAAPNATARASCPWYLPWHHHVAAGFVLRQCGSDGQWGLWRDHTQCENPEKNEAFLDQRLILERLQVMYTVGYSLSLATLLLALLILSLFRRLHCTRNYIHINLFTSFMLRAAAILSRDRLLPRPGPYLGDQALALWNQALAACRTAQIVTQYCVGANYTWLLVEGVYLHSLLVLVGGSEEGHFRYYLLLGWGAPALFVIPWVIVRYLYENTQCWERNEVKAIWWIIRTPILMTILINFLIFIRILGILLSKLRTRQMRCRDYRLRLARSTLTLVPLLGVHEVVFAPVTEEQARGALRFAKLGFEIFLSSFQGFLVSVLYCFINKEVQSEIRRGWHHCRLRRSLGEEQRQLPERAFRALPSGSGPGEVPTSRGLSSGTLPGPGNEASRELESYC

[3] = target: T3, human glucagon receptor (hGR) (human, UniProt P47871 26-477); experiment: cell-based or functional assay
[4] = target: T3, human glucagon receptor (hGR); experiment: SPA competition against 125I-labelled glucagon on hGR membranes; Cheng-Prusoff
Protocol: Plates are sealed, mixed end over end, and read with a MicroBeta® scintillation counter after 12 hours of settling time at room temperature.

[5] = target: T4, human glucagon-like peptide 1 receptor (hGLP-1R) (human, UniProt P43220 24-463); experiment: SPA competition against 125I-labelled GLP-1 amide on hGLP-1R membranes; Cheng-Prusoff
T4 construct: whole, on cells; The assay used crude plasma membranes of the expressing 293HEK cells

T3 sequence (P47871 26-477): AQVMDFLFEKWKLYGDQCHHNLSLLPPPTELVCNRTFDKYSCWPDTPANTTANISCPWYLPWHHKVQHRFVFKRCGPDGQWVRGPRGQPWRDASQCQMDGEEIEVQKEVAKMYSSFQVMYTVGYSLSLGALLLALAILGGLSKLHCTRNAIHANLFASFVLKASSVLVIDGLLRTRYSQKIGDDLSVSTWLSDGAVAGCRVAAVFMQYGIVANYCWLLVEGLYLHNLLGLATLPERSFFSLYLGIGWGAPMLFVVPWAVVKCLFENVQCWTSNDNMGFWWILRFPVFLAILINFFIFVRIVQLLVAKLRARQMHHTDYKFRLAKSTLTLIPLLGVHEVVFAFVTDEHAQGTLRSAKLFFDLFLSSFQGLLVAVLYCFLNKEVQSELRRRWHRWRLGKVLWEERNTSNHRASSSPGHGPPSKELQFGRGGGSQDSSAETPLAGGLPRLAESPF
T1 sequence (Q61606 27-485): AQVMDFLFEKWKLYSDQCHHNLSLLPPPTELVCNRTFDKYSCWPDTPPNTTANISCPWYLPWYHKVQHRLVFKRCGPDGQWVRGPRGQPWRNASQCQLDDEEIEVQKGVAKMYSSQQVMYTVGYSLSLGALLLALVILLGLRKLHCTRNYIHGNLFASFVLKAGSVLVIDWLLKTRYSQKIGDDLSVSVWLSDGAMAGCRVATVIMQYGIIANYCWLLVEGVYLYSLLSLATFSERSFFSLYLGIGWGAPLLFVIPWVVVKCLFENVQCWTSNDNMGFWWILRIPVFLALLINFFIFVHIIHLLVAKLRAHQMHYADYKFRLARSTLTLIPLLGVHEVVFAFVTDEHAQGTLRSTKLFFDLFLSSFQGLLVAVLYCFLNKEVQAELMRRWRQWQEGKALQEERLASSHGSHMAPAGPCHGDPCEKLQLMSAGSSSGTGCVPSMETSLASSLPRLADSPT

B1: compound of SEQ ID NO: 2 (peptide)
peptide: HAQGTFLSDYSKYLD[Aib]KKAQEFVEWLLKTGPSSGAPPKSK-NH2
modifications: N-terminus assumed
SMILES: CC(C)C[C@H](NC(=O)[C@H](Cc1c[nH]c2ccccc12)NC(=O)[C@H](CCC(=O)O)NC(=O)[C@@H](NC(=O)[C@H](Cc1ccccc1)NC(=O)[C@H](CCC(=O)O)NC(=O)[C@H](CCC(N)=O)NC(=O)[C@H](C)NC(=O)[C@H](CCCCN)NC(=O)[C@H](CCCCN)NC(=O)C(C)(C)NC(=O)[C@H](CC(=O)O)NC(=O)[C@H](CC(C)C)NC(=O)[C@H](Cc1ccc(O)cc1)NC(=O)[C@H](CCCCN)NC(=O)[C@H](CO)NC(=O)[C@H](Cc1ccc(O)cc1)NC(=O)[C@H](CC(=O)O)NC(=O)[C@H](CO)NC(=O)[C@H](CC(C)C)NC(=O)[C@H](Cc1ccccc1)NC(=O)[C@@H](NC(=O)CNC(=O)[C@H](CCC(N)=O)NC(=O)[C@H](C)NC(=O)[C@@H](N)Cc1c[nH]cn1)[C@@H](C)O)C(C)C)C(=O)N[C@@H](CC(C)C)C(=O)N[C@@H](CCCCN)C(=O)N[C@H](C(=O)NCC(=O)N1CCC[C@H]1C(=O)N[C@@H](CO)C(=O)N[C@@H](CO)C(=O)NCC(=O)N[C@@H](C)C(=O)N1CCC[C@H]1C(=O)N1CCC[C@H]1C(=O)N[C@@H](CCCCN)C(=O)N[C@@H](CO)C(=O)N[C@@H](CCCCN)C(N)=O)[C@@H](C)O
notes: Synthetic 40-residue glucagon analog made by solid-phase synthesis on Rink amide resin
B1 was tested, and the Ki [1] was 0.494 nM, the Ki [2] was 1050 nM and the “hGR stimulated cAMP functional assay (HTRF), relative EC50” value [3] was 0.0356 nM. The Ki [4] was 0.397 nM and the Ki [5] was 1220 nM.
